Consider seven molecules from patent US20230295297A1.

One may read the Kd as the equilibrium constant for the complex coming apart. A lower Kd goes with higher affinity.

For test [1], the target named is TREM2 protein of the 'Percent APOE binding' column of Table 9B. The test can be described thus: TREM2 binding to APOE with antibody; assay not described for this table.
In test [2] the target is T1, mouse TREM2 on cells (mouse), Q99NH8.
T1 chain: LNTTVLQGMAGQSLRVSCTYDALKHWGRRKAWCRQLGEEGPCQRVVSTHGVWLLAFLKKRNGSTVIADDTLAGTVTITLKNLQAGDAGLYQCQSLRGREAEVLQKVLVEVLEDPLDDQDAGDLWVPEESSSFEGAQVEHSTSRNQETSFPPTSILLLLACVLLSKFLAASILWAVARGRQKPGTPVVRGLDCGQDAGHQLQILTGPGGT
The test can be described thus: cell-based or functional assay.

Test [3] has the same target. The test can be described thus: FACS, WT mouse macrophages. On the technique in general: A flow cytometer gives signals particle by particle.
Test [4] shares this target. Nature of the test: FACS, BWZmT2 cells.
The target is the same in test [5]. Nature of the test: KD cell binding.
In test [6] the target is recombinant human TREM2-DAP12 fusion protein expressed on cells (human). Nature of the test: cell-based or functional assay.
Chain of recombinant human TREM2-DAP12 fusion protein expressed on cells (human) (chain, as listed by the source limits assumed, form in doubt): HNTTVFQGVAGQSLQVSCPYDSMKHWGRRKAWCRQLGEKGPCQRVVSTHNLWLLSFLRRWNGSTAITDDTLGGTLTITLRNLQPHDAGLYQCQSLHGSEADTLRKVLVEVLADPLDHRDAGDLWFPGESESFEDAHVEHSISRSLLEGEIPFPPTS

B1: 3A7 (antibody, IgG1, V domains shown)
VL: not shown
VH: EVKLEESGGGLVQPGGSMKLSCAASGFTFSDAWMGWVRQSPEKGLEWVAEIRDKVKNHATYYAESVKGRFTISRDDSKSTVYLQMNTLRADDTGIYYCRLGVFDYWGQGTTLTVSS
modifications: not checked
B1 had a Percent APOE binding in test [1] of 92.3%. In addition, in test [2], the BWZmT2 LUC Plate-bound (FOB) was determined as 7.8 FOB, the BWZmT2 LUC Solution (FOB) was found to be 7.18 FOB and the decrease in cell surface level of TREM2 on BMDM (FACS) came out at 58%. In addition, the % Positive WT BMMACS in test [3] worked out at 26.3%. In test [4], this molecule displayed an MFI BWZmT2 of 2870 MFI. Besides, the Kd in test [5] turned out to be 5.86 nM.

B2: 8A1 (antibody, IgG2a, V domains shown)
VL: DIQMTQSPASLSVSVGETVTITCRTSENVYSNLAWYQQKQGKSPQLLVYAATNLADGVPSRFSASGSATQFSLKINSLQSADFGSYYCHHFWGTPYTFGGGTKLEMN
VH: EVQLQQSGAELVKPGASVKISCKASGYAFSNYWMSWVKQRPGKGLEWIGQIYPGDGDTKYNGKFEGKATLTADKSSSTAYMQLSSLTSEDSAVYFCSREKGADYYGSTYSAWFSYWGQGTLVTVSA
As to B2, in test [6], the BWZhT2 LUC Plate-bound (FOB) was 5.46 FOB and the BWZhT2 LUC Solution (FOB) amounted to 0.35 FOB.

B3: 6H2 (antibody, IgG2a, V domains shown)
VL: DVLMTQTPLSLPVSLGDQASISCRSSQSIVHSNGNTYLEWYLQKPGQSPKLLIYKVSNRFSGVPDRFSGSGSGTDFTLKISRVEAEDLGVYYCFQGSHVPFTFGSGTKLEIK
VH: QVQLQESGPGLVQPSQSLSIICTVSAFSLTNYAVHWIRQSPGKGLEWLGVIWSGGSTAFNAAFISRLNISKDNSKSQVFFKMNSLQSDDTAIYYCATHYYRSTYAFSYWGQGTLVTVSA
With B3, in test [6], the BWZhT2 LUC Plate-bound (FOB) turned out to be 1.1 FOB, the BWZhT2 LUC Solution (FOB) turned out to be 3.6 FOB and the BWZhT2 LUC Solution + PS (Δ Bmax) is -40200.

B4: 10A9 (antibody, IgG1, V domains shown)
VL: DVVMTQTPLSLPVSLGDQASISCRSSQTIIHSNGNTYLEWYLRKPGQSPKLLIYKVSNRFCGVPDRFSGSGSGTDFTLKISRVEAEDLGVYYCFQGSHVPYTFGGGTELEIK
VH: QVQLQQSGAEVVKPGASVKMSCKTSGYPFSNFWITWVKQRPGQGLVWIGDIYPGSDNRNFNERFKTKATLTVDTSSSTAYMHLSSLTSEDSAVYFCAREAYYTNPGFAYWGQGTLVTVSA
Take B4: in test [6], the BWZhT2 LUC Plate-bound (FOB) came out at 2.18 FOB and the BWZhT2 LUC Solution (FOB) was found to be 0.31 FOB.

B5: 3A2 (antibody, IgG1, V domains shown)
VL: DVVMTQTPLSLPVSLGDQASISCRSSQTIIHSNGNTYLEWYLRKPGQSPKLLIYKVSNRFSGVPDRFSGSGSGTDFTLKISRVEAEDLGVYYCFQGSHVPYTFGGGTELEIK
VH: QVQLQQSGAELVKPGASVKMSCKTSGYPFSNFWITWVKQRPGQGLVWIGDIYPGSDNSNYNEKFKTKATLTVDTSSSTAYMHLSSLTSEDSAVYFCAREAYYTNPGFAYWGQGTLVTVST
With B5, in test [6], the BWZhT2 LUC Plate-bound (FOB) stood at 1.07 FOB and the BWZhT2 LUC Solution (FOB) turned out to be 0.32 FOB.

B6: 9F5 (antibody, IgG1, V domains shown)
VL: DVVMTQTPLSLPVSLGDQASISCRSSQSLVHSNGYTYLHWYLQKPGQSPKLLIYKVSNRFSGVPDRFSGSGSGTDFTLKISRVEADDLGVYFCSQSTRVPYTFGGGTKLEIK
VH: QVQLQQSGPELVKPGASLKISCKASGYAFSSSWMNWVKQRPGKGLEWIGRIYPGDGDTNYNGEFRVRATLTADTSSTTAYMQLSSLTSEDSAVYFCARLLRNQPGESYAMDYWGQGASVTVSS
As to B6, in test [6], the BWZhT2 LUC Plate-bound (FOB) stood at 2.48 FOB, the BWZhT2 LUC Solution (FOB) is 1.75 FOB and the BWZhT2 LUC Solution + PS (Δ Bmax) is 2930.

B7: 9G1 (antibody, IgG1, V domains shown)
VL: DVLMTQTPLSLPVSLGDQASISCRFSQSLVHSNGNTYLHWYLQKPGQSPKLLIYKVSNRFSGVPDRFSGSGSGTDFTLRISGVEAEDLGVYFCSQSTRVPPTFGGGTKLEIK
VH: QVQLQQSGAELVKPGASVKLSCKASGYIFTTYWIHWVKQRPGRGPEWIGRIDPNNGDTNYNEKFKTKATLTVDKPSSTADMQLSSLTSEDSAVYYCVMTGTDFDYWGQGTTLTVSS
Consider B7, for which, in test [6], the BWZhT2 LUC Plate-bound (FOB) came out at 1.59 FOB, the BWZhT2 LUC Solution (FOB) is 1.07 FOB and the BWZhT2 LUC Solution + PS (Δ Bmax) is 2660.
